# Data taken from US20260274928A1 (VIR BIOTECHNOLOGY, published 2026).
# Read-outs that look alike come from different tables or passages of the source.
# Experiments:
# [1] = target: SARS-CoV-2 mouse/rabbit Fc-tagged RBD (SARS-CoV-2, UniProt P0DTC2 319-541)
# [2] = target: T1, SARS-CoV S glycoprotein (SARS-CoV, UniProt P59594 14-1255); test: cell-based or functional assay
# [3] = target: SARS-CoV-2 CH.1.1 S glycoprotein (SARS-CoV-2 CH.1.1); test: cell-based or functional assay
# [4] = target: T1, SARS-CoV S glycoprotein; test: cell-based or functional assay; remark: listed apart in the source
# [5] = target: T2, SARS-CoV-2 Wuhan-Hu-1 RBD (SARS-CoV-2 Wuhan-Hu-1, UniProt P0DTC2 328-531); test: RBD binding affinity (SPR, see Example 5)
# T2 construct: range 328-531
# [6] = target: T1, SARS-CoV S glycoprotein; test: cell-based or functional assay; remark: listed apart in the source
# [7] = target: T2, SARS-CoV-2 Wuhan-Hu-1 RBD; test: BLI, Fab on immobilized Wuhan-Hu-1 RBD (FIG. 25)
Binder,IC50 (read off the curve) [1],IC50 [2],IC50 [3],Kd [5],other results
"S3I2 (antibody, V domains shown) VH: EVQLVETGGGLIQPGGSLTLSCAASGLVVSYNYMTWVRQAPGKGLEWLSVIYAGGSTFYADSVKGRFTVSRDNSNNTLYLQMNNLRAEDTAVYFCARWGQVRFTSEEAYYKYGLDVWGQGTTVTVSS VL: DIQLTQSPSFLSASVGDRVTITCRASQGISNYLAWYQQRPGKAPKLLIFTASTLQSGVSSRFSGSGSGTEFTLTISSLQPEDLATYYCQQLNSNLQGTFGQGTRVEIK",~30 ng/mL,–,–,–,–
"S2V29-v37.2 (antibody, V domains shown) VH: EVQLVESGGSVVQPGRALRLSCAASGITFSSFGMYWVRQAPGKGLEWLGYIAYDGSDTYYADSVKGRFTISRDNSKNTLYLQMNSLRIEDTAVYYCAKDYYPLLSYYYGLDVWGQGTTVTVSS VL: QSVLTQPRSVSGSPGQSVTISCTGTSSDVGAYNYVSWYQQHPGKAPKFMIYDVDQRPSGVPDRFSGSKSGNTASLIISGLQAEDEADYYCSSYAGSYIWVFGGGTQLTVL",–,6 ng·mL,8.9 ng/mL,0.16 nM,FC vs v1.2 [2]: 116 fold; FC vs S2V29-v1.2 [3]: 1.3 fold; FC IC50 par/IC50 Var [4]: 21.7 fold; IC50 [4]: 7.7 ng/mL; fold improvement in neutralization [6]: 100 fold
"S2V29-v1.2 (antibody, V domains shown) VH: EVQLVESGGSVVQPGRALRLSCAASGITFSSFGMYWVRQAPGKGLEWLGVIAYDGSNTYYADSVKGRFTISRDNSKNTLYLQMNSLRIEDTAVYYCAKDYYPLLSYYYGLDVWGQGTTVTVSS VL: QSVLTQPRSVSGSPGQSVTISCTGTSSDVGAYNYVSWYQQHPGKAPKFMIYDVDQRPSGVPDRFSGSKSGNTASLIISGLQAEDEADYYCSSYAGSYIWVFGGGTQLTVL",–,689 ng·mL,11.2 ng/mL,< 0.02 nM,–
"S2V29-v1.1 (antibody, V domains shown) VH: EVQLVESGGSVVQPGRALRLSCAASGITFSSFGMYWVRQAPGKGLEWLGVIAYDGSNTYYADSVKGRFTISRDNSKNTLYLQMNSLRIEDTAVYYCAKDYYPLLSYYYGLDVWGQGTTVTVSS VL: QSVLTQPRSVSGSPGQSVTISCTGTSSDVGAYNYVSWYQQHPGKAPKFMIYDVDQRPSGVPDRFSGSKSGNTASLIISGLQAEDEADYYCCSYAGSYIWVFGGGTQLTVL",~20 ng/mL,–,–,–,–
"S2K146 Fab (Fab, V domains shown) VH: QVQLVESGGVVVQPGGSLRLSCAASGFTFHDHTMHWVRQAPGKGLEWVSLITWNGGTIHYSDSVKGRFTISRDNSKNSLYLQMNSLRTEDTALYYCAKDLGRGGWYLPSDAWGQGTLVTVSS VL: not shown",–,–,–,–,binding result [7]: binds
"S3L17 (antibody, V domains shown) VH: EVQLVESGGGLVQPGGSLRLSCAASEIIVSSNYMNWVRQAPGKGLEWVSVIYAGGSTFYADSVRGRFTISRDNSKNTLYLQMNSLRPDDTAIYYCARDLGPWGMDVWGQGTTVTVSS VL: DIQMTQSPSSLSASVGDRVAITCRASHGINNDLAWYQQKPGKVPKLLIYAASTLQSGVPSRFSGSGSGTDFTLTISSLQPEDVATYYCQHYSSDPRFTFGPGTKVDIK",~20 ng/mL,–,–,0.07 nM,–
